Test results: the supplement of paper PMC10724198
± gives the standard deviation of the averaged measurements.

system: Saccharomyces cerevisiae; test: protein stability index of tFT-peptide fusion (C-terminal peptide) (PSI (0-1 scale)); higher = more stable (slower turnover); conditions: genetic background: wild type; temperature: 30 C
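Also: PSI is a weighted mean of sequencing reads over stability bins, variants kept only with over 10 reads, mCherry proximal and sfGFP distal, peptide attached via GGGS linker.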

Sequence | protein stability index
VLLLRPTPPLFH | 0.663 ± 0.046
VLLLSRPLFPFS | 0.669 ± 0.031
VLLMRSARTAGA | 0.69 ± 0.021
VLLRKLLCPGYV | 0.598 ± 0.016
VLLRRRASSISG | 0.671 ± 0.043
VLPHFSLSTPSP | 0.7493 ± 0.0052
VLQEFTFPKVGL | 0.675 ± 0.015
VLSGPQVVWSES | 0.679 ± 0.017
VLSLLGVLFCLF | 0.634 ± 0.028
VLSPVFLISLFS | 0.552 ± 0.016
VLTSLVRGVFTG | 0.632 ± 0.069
VLVSVSVPLRGR | 0.78 ± 0.1
VLWIWRGFRGLG | 0.626 ± 0.011
VMAVARIEVKMR | 0.587 ± 0.024
VMGYCNWCVIRQ | 0.694 ± 0.054
VMWNLVCLRRSQ | 0.6271 ± 0.0012
VNEEGCDILVRT | 0.757 ± 0.013
VNPAFRTSICHH | 0.584 ± 0.12
VNTISRKIPPIA | 0.648 ± 0.041
VNVSLFWFGTYL | 0.61 ± 0.054
VPEVRRTDGRVR | 0.74 ± 0.014
VPFGPLRPALYL | 0.708 ± 0.018
VPGASSSLSSSP | 0.667 ± 0.077
VPLPGAAGATLL | 0.773 ± 0.091
VPLPLVPCARIY | 0.627 ± 0.0093
VPLYVDLYLSGA | 0.721 ± 0.043

Sequence | protein stability index
VPNTFVGVLICP | 0.607 ± 0.026
VPPFGPTPLASI | 0.797 ± 0.073
VPPHLLLSLSPP | 0.635 ± 0.02
VPPRPPLPPRPP | 0.625 ± 0.027
VPPSYDLPLFPF | 0.632 ± 0.013
VPSAFLYLVGSL | 0.591 ± 0.01
VPSANAQTPSTC | 0.717 ± 0.071
VPSGVWGVLGFA | 0.667 ± 0.048
VPSPFIPVSPTL | 0.669 ± 0.012
VPSSCFLLDLPP | 0.648 ± 0.047
VPSSVLIPRPLF | 0.72 ± 0.081
VPVITLGSRISG | 0.658 ± 0.0088
VQDFTFLLPLAP | 0.692 ± 0.17
VQSSLSDFYVSS | 0.707 ± 0.061
VQSVDVLLISSL | 0.642 ± 0.032
VQSWGGRGMVVW | 0.719 ± 0.036
VQTHPFWFPTLL | 0.573 ± 0.07
VRARSTSCGIWC | 0.692 ± 0.045
VRARTAFVPLPA | 0.727 ± 0.097
VRATSMWRSRGR | 0.688 ± 0.053
VRDLDMEEISRY | 0.727 ± 0.05
VRDLGSPFIVYR | 0.64 ± 0.059
VRGLGFVSWFFL | 0.651 ± 0.025
VRGRVGYFIVRK | 0.642 ± 0.044
VRGSLGQGNDTA | 0.706 ± 0.03
VRINNIGKRVNR | 0.706 ± 0.025

Sequence | protein stability index
VRKGSERKKAGN | 0.6686 ± 0.0043
VRPQHIITSGSC | 0.739 ± 0.15
VRRGGGVGGYGI | 0.734 ± 0.084
VRRRANVRVLRD | 0.688 ± 0.077
VRRRKLAKCEVN | 0.474 ± 0.058
VRRTRGGLRGWS | 0.6987 ± 0.0053
VRRWAVSSAFVG | 0.628 ± 0.054
VRWTVAWAVGAT | 0.689 ± 0.12
VRYGQRGTFGLL | 0.6901 ± 0.0019
VSAPLGRFSGLV | 0.685 ± 0.036
VSDMILSATFCM | 0.643 ± 0.042
VSDVIPRSRCVR | 0.6884 ± 0.0024
VSGCVCAAADVL | 0.696 ± 0.027
VSGCVMIYGRTV | 0.724 ± 0.027
VSGSVVLHTVIP | 0.658 ± 0.017
VSGVLPGALFPL | 0.684 ± 0.053
VSGYGSSQDDVR | 0.6397 ± 0.0056
VSIGGLLGCVLF | 0.692 ± 0.048
VSMSACSPGGMS | 0.646 ± 0.02
VSNKWATANKYG | 0.644 ± 0.051
VSPGLFRSPPHY | 0.664 ± 0.011
VSPLPSPVPLLP | 0.69 ± 0.076
VSPNSFVGRPCF | 0.717 ± 0.072
VSPSPIPSMPVI | 0.71 ± 0.078
VSREWNVSIDVF | 0.495 ± 0.027
VSRGGMSGIVCL | 0.773 ± 0.11

Sequence | protein stability index
VSRGIFSGRGGV | 0.736 ± 0.018
VSSCLHDYSAIY | 0.744 ± 0.029
VSSTFGQDTSKR | 0.715 ± 0.024
VSVVVGLLFVGF | 0.5 ± 0.065
VSWLSTKCWTIL | 0.563 ± 0.038
VSYLLPPPPPPP | 0.682 ± 0.046
VTGDRGGVRGGE | 0.685 ± 0.012
VTHNTLLRTKVV | 0.518 ± 0.0069
VTLRLCGQSVVV | 0.585 ± 0.0085
VTLWQLANNTLG | 0.626 ± 0.028
VTNVTSETRVLT | 0.6816 ± 0.0013
VTPLPHPPLPPP | 0.756 ± 0.089
VTPPGFTYVLEV | 0.619 ± 0.058
VVAFSLLSGFLV | 0.636 ± 0.04
VVALHYNYFSRL | 0.613 ± 0.09
VVDSGLFLAASR | 0.643 ± 0.08
VVDWRRAAKREG | 0.685 ± 0.051
VVFLWGVFGGSI | 0.688 ± 0.055
VVGAGGLCNMDV | 0.635 ± 0.029
VVGDGVWCLSVG | 0.721 ± 0.046
VVGRLERRLREQ | 0.674 ± 0.017
VVLGFGPRFRVV | 0.584 ± 0.018
VVLGLWGLCCGC | 0.527 ± 0.029
VVLVGVVGGMVG | 0.639 ± 0.018
VVRGKRRVRWLR | 0.625 ± 0.049
VVSFGRIGGVGR | 0.675 ± 0.027

Sequence | protein stability index
VVSIIQDITLIS | 0.7094 ± 0.0034
VVTEKLKRAARA | 0.669 ± 0.021
VVVGRWSVLSSV | 0.522 ± 0.017
VVVLGVGGVGWW | 0.704 ± 0.019
VVWKRALWGEGL | 0.791 ± 0.073
VWGGYGQFYGWK | 0.606 ± 0.049
VWLGEYGVGCSV | 0.655 ± 0.048
VWRVGRARGQMG | 0.6953 ± 0.0017
VWSVDVSGCVVR | 0.641 ± 0.031
VWVWHGAVLMGG | 0.527 ± 0.017
VYASMFRAAWPF | 0.746 ± 0.076
VYMAGSFSRLFQ | 0.723 ± 0.034
VYSDSCLLRKTT | 0.695 ± 0.02
VYTEFWERQGLL | 0.796 ± 0.051
WACGYLGSTILS | 0.643 ± 0.067
WAGSGCECTGGG | 0.705 ± 0.0031
WAGVTLRLRSAV | 0.682 ± 0.055
WANGEFSLGCGG | 0.712 ± 0.017
WCGWGGVACLLL | 0.681 ± 0.023
WCLNMLLIPSMY | 0.605 ± 0.021
WCPGAGGAVVVV | 0.658 ± 0.073
WCWVGRFVGLVR | 0.447 ± 0.11
WDEDGIFDAGGA | 0.6 ± 0.041
WDHGDHTAMVSI | 0.683 ± 0.019
WEAPCGGTLVGR | 0.697 ± 0.048
WEWFKWRDHNRY | 0.803 ± 0.037

Sequence | protein stability index
WFCFGSFILCLL | 0.492 ± 0.028
WFLLTSSTSRPP | 0.737 ± 0.059
WGAAGRAGTERH | 0.682 ± 0.029
WGCVGVVGLFSG | 0.656 ± 0.047
WGEKTRKVQGCG | 0.695 ± 0.066
WGGGGGRKVSVG | 0.67 ± 0.082
WGGGGGWSGACL | 0.6909 ± 0.0059
WGGGGLRGGWDG | 0.738 ± 0.03
WGGGGLVVFGWK | 0.698 ± 0.011
WGGGGVRGGMGG | 0.781 ± 0.043
WGGGVLRRRVGA | 0.752 ± 0.055
WGGLSRCAGVWL | 0.632 ± 0.034
WGGSGGREPGGS | 0.753 ± 0.066
WGGYSLKFRTRR | 0.705 ± 0.0025
WGLGGVCAVRGS | 0.575 ± 0.094
WGLGLLGGCWGV | 0.679 ± 0.09
WGPGGVAWGAWW | 0.7837 ± 0.0022
WGPPPPYSPFSL | 0.713 ± 0.0089
WGPVPWWFGWMG | 0.678 ± 0.027
WGRCLGWAGPAG | 0.788 ± 0.11
WGRCVRGGRPWG | 0.567 ± 0.021
WGRGLESVKGGG | 0.727 ± 0.018
WGTSGAMRGTEG | 0.683 ± 0.022
WGVGWGMVEGWR | 0.701 ± 0.019
WGVSVVEGGRSG | 0.736 ± 0.093
WGWGGGRDGCGV | 0.643 ± 0.1

Sequence | protein stability index
WGWGGVRGGMGG | 0.796 ± 0.08
WGWVLVGVGGLV | 0.576 ± 0.091
WHEHGGVGTYFI | 0.6743 ± 0.0043
WIFHHSKTTLAP | 0.7158 ± 0.0052
WKGEMRDDGGRR | 0.687 ± 0.041
WKGEREKQGKEG | 0.589 ± 0.084
WKKDTKTKKKKN | 0.695 ± 0.034
WKKSEKTEHEQI | 0.653 ± 0.12
WKQKRGTHNIKD | 0.722 ± 0.011
WLFLCWCFFCCL | 0.597 ± 0.12
WLGLGGARGCML | 0.745 ± 0.057
WLNMKFRTLCGS | 0.634 ± 0.038
WLPRPHPPLRPA | 0.724 ± 0.08
WLRPRSFSVVAT | 0.52821 ± 0.00016
WLSMLLTVAPHH | 0.64278 ± 0.00026
WLTCICSSVAPL | 0.698 ± 0.042
WLVGEWPGRWGR | 0.728 ± 0.037
WMSFLARVVTFE | 0.716 ± 0.025
WMSVCCRSALVD | 0.65 ± 0.011
WMTFKKLQCNRT | 0.682 ± 0.027
WNGIDQSMSGRR | 0.694 ± 0.099
WPHAPSLPRFSG | 0.69 ± 0.018
WPLSYLPLSSPP | 0.701 ± 0.01
WPRVCPFSLYDA | 0.723 ± 0.012
WRQRLKTNNITT | 0.733 ± 0.018
WRRPKAGRHAPC | 0.685 ± 0.0065

Sequence | protein stability index
WRSGRGRCAVSQ | 0.721 ± 0.045
WRTPVCSPFLLG | 0.691 ± 0.0053
WSCTPRTPPPPR | 0.7925 ± 0.002
WSESVKEASFTS | 0.756 ± 0.028
WSFGRWGGAGAR | 0.629 ± 0.044
WSFSSGCWGYVG | 0.6281 ± 0.0036
WSGGAGGGGRLG | 0.645 ± 0.088
WSIWRLPSFEWV | 0.741 ± 0.04
WSKEQRRGGCGQ | 0.714 ± 0.015
WSLIARYSPCHF | 0.67 ± 0.027
WSRGGVLGVCCG | 0.536 ± 0.031
WSSRGAIDSARH | 0.762 ± 0.019
WSTGEKMALHGR | 0.787 ± 0.12
WSTVCKIAGAID | 0.706 ± 0.028
WTSPRISPRSPL | 0.726 ± 0.014
WVEACVCRGFVG | 0.698 ± 0.059
WVGAVVGAGGRW | 0.614 ± 0.089
WVGFRTFGVWGV | 0.707 ± 0.063
WVGGDINFWWGG | 0.747 ± 0.12
WVGGVACGAGGG | 0.62 ± 0.069
